Results taken from patent US6514936 (Bayer, dated 2003).

Assays:
[1] = target: T1, Human rhinovirus serotype 3 (HRV3), purified virion (human rhinovirus serotype 3, UniProt Q82081 562-855; Q82081 70-331; Q82081 332-561; Q82081 2-69); test: solid-phase competition against [35S]-HRV3 binding to ICAM-1-coated plates
T1 construct: domain: VP1;domain: VP2;domain: VP3;domain: VP4; also called [35S]-HRV3
T1 sequence 1: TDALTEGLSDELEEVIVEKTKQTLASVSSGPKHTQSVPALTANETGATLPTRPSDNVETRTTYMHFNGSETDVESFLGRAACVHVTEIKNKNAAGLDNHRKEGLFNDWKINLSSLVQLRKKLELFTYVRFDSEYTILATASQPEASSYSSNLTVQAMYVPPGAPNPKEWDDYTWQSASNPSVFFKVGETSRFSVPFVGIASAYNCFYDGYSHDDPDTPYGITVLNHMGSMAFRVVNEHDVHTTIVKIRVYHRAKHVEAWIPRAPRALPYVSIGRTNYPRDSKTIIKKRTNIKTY
T1 sequence 2: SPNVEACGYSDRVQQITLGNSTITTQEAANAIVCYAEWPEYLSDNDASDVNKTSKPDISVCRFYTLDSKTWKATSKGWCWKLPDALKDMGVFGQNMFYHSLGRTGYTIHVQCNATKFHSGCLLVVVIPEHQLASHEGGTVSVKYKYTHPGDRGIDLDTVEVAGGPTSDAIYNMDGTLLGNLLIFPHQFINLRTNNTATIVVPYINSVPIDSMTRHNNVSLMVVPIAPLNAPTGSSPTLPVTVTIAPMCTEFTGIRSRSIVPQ
T1 sequence 3: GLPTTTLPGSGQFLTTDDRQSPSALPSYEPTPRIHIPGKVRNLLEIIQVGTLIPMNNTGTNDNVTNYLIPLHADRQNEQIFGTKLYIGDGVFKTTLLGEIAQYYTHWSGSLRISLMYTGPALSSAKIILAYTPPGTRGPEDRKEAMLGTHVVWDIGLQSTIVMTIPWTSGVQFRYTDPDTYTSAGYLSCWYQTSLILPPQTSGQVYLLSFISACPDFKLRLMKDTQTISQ
T1 sequence 4: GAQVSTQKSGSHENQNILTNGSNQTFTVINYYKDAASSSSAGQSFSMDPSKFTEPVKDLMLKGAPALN

[2] = target: T1, Human rhinovirus serotype 3 (HRV3), …; test: solid-phase competition, soluble ICAM against [35S]-HRV3 binding to ICAM-1-coated plates, 0.1% Triton X-100; average of three experiments ± S.D.
[3] = target: T1, Human rhinovirus serotype 3 (HRV3), …; test: cell-based or functional assay
[4] = target: T1, Human rhinovirus serotype 3 (HRV3), …; test: pelleting assay, [35S]-cysteine-labelled ICAM mixed with HRV3 and centrifuged; average of 4 experiments
[5] = target: T1, Human rhinovirus serotype 3 (HRV3), …; test: cell-based or functional assay; remark: listed apart in the source
[6] = target: T1, Human rhinovirus serotype 3 (HRV3), …; test: dot-blot, normalised [35S]-HRV3 binding of immobilised ICAM against that of immobilised tICAM(453)

B1: tICAM(185) (receptor)
chain: QTSVSPSKVILPRGGSVLVTCSTSCDQPKLLGIETPLPKKELLLPGNNRKVYELSNVQEDSQPMCYSNCPDGQSTAKTFLTVYWTPERVELAPLPSWQPVGKNLTLRCQVEGGAPRANLTVVLLRGEKELKREPAVGEPAEVTTTVLVRRDHHGANFSCRTELDLRPQGLELFENTSAPYQLQTF
notes: range 1-185; On the UniProt precursor it is shifted by the length of the signal peptide; also called truncated ICAM, domains I and II; two N-terminal domains of ICAM-1
In the case of B1, the “fold difference of IC50 against tICAM(453)” value [1] is reported as 3 fold, the “fold higher IC50 than tmICAM” value [1] is reported as 1000 fold and the IC50 [2] is reported as 9.7 µM. The “IC50, neutralization of HRV3 infectivity, Assay I (continuous)” value [3] was 8.2 µM, the “IC50, neutralization of HRV3 infectivity, Assay II (Pretreatment)” value [3] was < 20 µM and the “IC50, neutralization of HRV3 infectivity, Assay III (high MOI)” value [3] was 13.2 µM. For the same binder, the “% ICAM Pelleted” value [4] was 4.3%.

B2: tICAM(453) (receptor)
chain: QTSVSPSKVILPRGGSVLVTCSTSCDQPKLLGIETPLPKKELLLPGNNRKVYELSNVQEDSQPMCYSNCPDGQSTAKTFLTVYWTPERVELAPLPSWQPVGKNLTLRCQVEGGAPRANLTVVLLRGEKELKREPAVGEPAEVTTTVLVRRDHHGANFSCRTELDLRPQGLELFENTSAPYQLQTFVLPATPPQLVSPRVLEVDTQGTVVCSLDGLFPVSEAQVHLALGDQRLNPTVTYGNDSFSAKASVSVTAEDEGTQRLTCAVILGNQSQETLQTVTIYSFPAPNVILTKPEVSEGTEVTVKCEAHPRAKVTLNGVPAQPLGPRAQLLLKATPEDNGRSFSCSATLEVAGQLIHKNQTRELRVLYGPRLDERDCPGNWTWPENSQQTPMCQAWGNPLPELKCLKDGTFPLPIGESVTVTRDLEGTYLCRARSTQGEVTRKVTVNVLSPRYE
notes: range 1-453; On the UniProt precursor it is shifted by the length of the signal peptide; also called truncated ICAM, domains I-V; entire extracellular domain of ICAM-1
For B2, the “fold higher IC50 than tmICAM” value [1] was 350 fold, the IC50 [2] was 3.1 µM and the “IC50, neutralization of HRV3 infectivity, Assay I (continuous)” value [3] was 0.38 µM. For the same binder, the “IC50, neutralization of HRV3 infectivity, Assay II (Pretreatment)” value [3] was < 20 µM, the “IC50, neutralization of HRV3 infectivity, Assay III (high MOI)” value [3] was 1.2 µM and the “% ICAM Pelleted” value [4] was 1%. The “neutralization IC50 in Assay III relative to tICAM(185)” value [5] was 11 fold.

B3: Transmembrane intercellular adhesion molecule-1 (tmICAM-1) (receptor, human, UniProt P05362 28-532, looked up)
chain: QTSVSPSKVILPRGGSVLVTCSTSCDQPKLLGIETPLPKKELLLPGNNRKVYELSNVQEDSQPMCYSNCPDGQSTAKTFLTVYWTPERVELAPLPSWQPVGKNLTLRCQVEGGAPRANLTVVLLRGEKELKREPAVGEPAEVTTTVLVRRDHHGANFSCRTELDLRPQGLELFENTSAPYQLQTFVLPATPPQLVSPRVLEVDTQGTVVCSLDGLFPVSEAQVHLALGDQRLNPTVTYGNDSFSAKASVSVTAEDEGTQRLTCAVILGNQSQETLQTVTIYSFPAPNVILTKPEVSEGTEVTVKCEAHPRAKVTLNGVPAQPLGPRAQLLLKATPEDNGRSFSCSATLEVAGQLIHKNQTRELRVLYGPRLDERDCPGNWTWPENSQQTPMCQAWGNPLPELKCLKDGTFPLPIGESVTVTRDLEGTYLCRARSTQGEVTRKVTVNVLSPRYEIVIITVVAAAVIMGTAGLSTYLYNRQRKIKKYRLQQAQKGTPMKPNTQATPP
notes: mature; also called HRR; human rhinovirus receptor
For B3, the IC50 [2] was 0.008 µM, the “% ICAM Pelleted” value [4] was 11.6% and the “ratio ICAM/tICAM (453)” value [6] was 2.3.
